Our source for the Kd values is article PMC3057111.

Positions count from the first letter of the chain named.

For data set [1], the target named is T1, hnRNPLL RRM1 WT (Mus musculus, UniProt Q921F4 109-213).
T1 sequence: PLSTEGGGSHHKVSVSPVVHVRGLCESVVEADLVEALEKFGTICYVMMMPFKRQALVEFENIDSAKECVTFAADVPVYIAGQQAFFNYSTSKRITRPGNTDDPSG
The experiment in a line: NMR titration.

The target of data set [2] is T2, hnRNPLL RRM1 V136D (thunder) (Mus musculus, UniProt Q921F4 109-213, V136D).
T2 sequence: T1 sequence with V28D
The experiment in a line: NMR titration.

The target in data set [3] is T2, hnRNPLL RRM1 V136D (thunder). Description: ITC. A general note: ITC needs no label: the signal is the heat of the interaction.
Data set [4] addresses T1, hnRNPLL RRM1 WT. Description: ITC.
In data set [5] the target is T2, hnRNPLL RRM1 V136D (thunder). Description: NMR titration. This is another data set of the same source.
Data set [6] has the same target. Description: NMR titration. The source holds these as a separate data set.
Data set [7] concerns the target T1, hnRNPLL RRM1 WT. The experiment in a line: NMR titration. This is another data set of the same source.
Data set [8] has as its target T1, hnRNPLL RRM1 WT. The experiment in a line: NMR titration. This is another data set of the same source.

The Kd is the constant that tells how readily two partners part at equilibrium. A higher Kd goes with a looser complex. CCUUACCUGCACGCA (ssRNA) [Ptprc exon 6 ARS 15-mer WT]: the Kd worked out at 700 ± 700 nM in the data set with hnRNPLL RRM1 WT [1]; 2000 ± 700 nM in data set [2]; 3100 ± 1400 nM in data set [3]; 1900 ± 400 nM in the data set with hnRNPLL RRM1 WT [4]; 1100 ± 400 nM in data set [5]; 1000 ± 400 nM in data set [6]. In addition, the Kd with hnRNPLL RRM1 WT [7] came to 100 nM; with hnRNPLL RRM1 WT [8], 1500 ± 1300 nM.
